Data taken from patent publication US11697815B2, “Regulation of gene expression through aptamer-modulated polyadenylation” (MeiraGTx UK II Limited, priority 2016, dated 2023).

Legend:
Assay type in all cases: cell-based
[1] = tested on: firefly luciferase expression; assay: Firefly luciferase assay of HEK 293 cells transfected with U1_Gua riboswitch constructs, with or without guanine; settings: for fold increase of luciferase activity upon guanine treatment: 500 μM guanine
Excerpt: Plasmid constructs: The EGFP gene in pEGFP-C1 vector was replaced with firefly luciferase gene coding sequence to generate a pFLuc vector that contains an SV40 early polyadenylation signal sequence. Oligos containing either wild type or mutant U1 binding site from the 5′ splice site of human DHFR exon 2 and xpt-guanine aptamer sequence followed by the complementary sequence of the last 7 nt of the U1 site sequence were synthesized (IDT) and cloned into the pFLuc vector using the Gibson cloning strategy and kit (NEB).
Transfection and aptamer ligand treatment: HEK 293 cells were transfected as described in Example 1. Four hours after transfection, the media was aspirated, and new media with or without 500 μM guanine was added.
Firefly luciferase assay of cultured cells: Twenty-four hours after the media change, the plates were removed from the incubator, and equilibrated to RT for several minutes on a lab bench, then aspirated. Glo-lysis buffer (Promega, 100 uL, RT) was added, and the plates allowed to remain at RT for at least 5 minutes. Then, the well contents were mixed by 50 uL trituration, and 20 uL of each sample was mixed with 20 μL of bright-glo reagent (Promega) that had been diluted to 10% in glo-lysis buffer. The 96 wells were spaced on an opaque white 384-well plate. Following a 5 min incubation at RT, luminescence was measured using a Tecan machine with 500 mSec read time. The luciferase activity was expressed as mean relative light unit (RLU)±S.D.
Plasmid constructs: SV40 early polyadenylation sequence was replaced with human beta globin polyA sequence in pFLuc vector to generate pFLuc_HBGPA. Oligos containing either wild type or mutant U1 binding site from 5′ ss of human DHFR exon 2 and xpt-guanine aptamer sequence followed by the complementary sequence of last 7 nt of U1 site sequence were synthesized (IDT) and cloned into pFLuc_HBGPA vector using Gibson cloning strategy and kit (NEB).
Transfection and luciferase assay were as described in Example 7.

[2] = tested on: Renilla luciferase expression; assay: Renilla luciferase assay of HEK 293 cells transfected with U1_theo riboswitch constructs, with or without theophylline
Protocol: Transfection: 3.5×10^4 HEK 293 cells were plated in a 96-well flat bottom plate the day before transfection. Plasmid DNA (500 ng) was added to a tube or a 96-well U-bottom plate. Separately, TransIT-293 reagent (Mirus; 1.4 μl) was added to 50 μl Opti-mem I media (Life Technologies), and allowed to sit for 5 minutes at room temperature (“RT”). Then, 50 μl of this diluted transfection reagent was added to the DNA, mixed, and incubated at RT for 20 min. Finally, 7 μl of this solution was added to a well of cells in the 96-well plate.
Renilla luciferase assay of cultured cells: 24 hours after the media change, plates were removed from the incubator, and equilibrated to RT for several minutes on a lab bench, and the media aspirated. Glo-lysis buffer (Promega, 100 μl, RT) was added, and the plates allowed to remain at room temp for at least 5 minutes. Then, the well contents were mixed by 50 μl trituration, and 20 μl of each well was mixed with 20 μl of Renilla-glo reagent in a solid-white 384-well plate. Ten minutes later, luminescence was measured using a Tecan machine with 500 msec read time. The luciferase activity was expressed as mean relative light unit (RLU)±SD.
Oligonucleotides containing either the full length of sequences of the stem from the stem-loop structure and theophylline aptamer or the truncated sequences of the stem, were synthesized (IDT) and cloned into pRL-SV40 vector using the Gibson Assembly Cloning Kit (NEB). Construct sequences were verified by DNA sequencing (Genewiz).
Transfection and aptamer ligand treatment: HEK 293 cells were transfected as described in Example 1. Four hours after transfection, the media was aspirated, and new media with or without 3 mM theophylline was added. A Renilla luciferase assay was performed 20 to 24 hours after theophylline treatment as described in Example 1. The induction fold was expressed as the quotient of luciferase activity obtained in the presence of aptamer ligand divided by the value obtained in the absence of the aptamer ligand.
Oligos containing 4 copies of the U1_theo_8_1 sequence in tandem were synthesized (IDT) and cloned using Gibson strategy and cloning kit (NEB). HEK 293 cells were transfected and Renilla luciferase assay was performed as described in Example 4.

[3] = tested on: Renilla luciferase expression; assay: as above; remark: listed apart in the source

B1: wtU1_Gua_HBGPA: wild type U1 site with xpt-guanine aptamer in pFLuc_HBGPA (human beta globin polyA sequence) (nucleic acid)
DNA: TCATAAAGGCCAAGAAGGGCGGAAAGATCGCCGTGTAAGGATCCAAGCTTATCGATACCGTCGACCTCGAGGTAATGTATAATCGCGTGGATATGGCACGCAAGTTTCTACCGGGCACCGTAAATGTCCGACTACATTACGGCCCAGATCTAATTCACCCCACCAGTGCAGGCTGCCTATCAGAAAGTGGTGGCTGGTGTGGCTAATGCCCTGGCCCACAAGTATCACTAAGCTCGCTTTCTTGCTGTCCAATTTCTATTAAAGGTTCCTTTGTTCCCTAAGTCCAACTACTAAACTGGGGGATATTATGAAGGGCCTTGAGCATCTGGATTCTGCCTAATAAAAAACATTTATTTTCATTGCAATGATGTATTT
modifications: in pFLuc_HBGPA; wtU1_Gua_HBGPA
fold increase of luciferase activity upon guanine treatment ([1]; human beta globin polyA sequence (pFLuc_HBGPA)): 2.1 fold

B2: mutU1_Gua_HBGPA: mutant U1 site with xpt-guanine aptamer in pFLuc_HBGPA (nucleic acid)
DNA: TCATAAAGGCCAAGAAGGGCGGAAAGATCGCCGTGTAAGGATCCAAGCTTATCGATACCGTCGACCTCGATGGAATCTATAATCGCGTGGATATGGCACGCAAGTTTCTACCGGGCACCGTAAATGTCCGACTACATTACGGCCCAGATCTAATTCACCCCACCAGTGCAGGCTGCCTATCAGAAAGTGGTGGCTGGTGTGGCTAATGCCCTGGCCCACAAGTATCACTAAGCTCGCTTTCTTGCTGTCCAATTTCTATTAAAGGTTCCTTTGTTCCCTAAGTCCAACTACTAAACTGGGGGATATTATGAAGGGCCTTGAGCATCTGGATTCTGCCTAATAAAAAACATTTATTTTCATTGCAATGATGTATTT
modifications: in pFLuc_HBGPA; mutU1_Gua_HBGPA
induction of luciferase activity upon guanine treatment (in words) ([1]; guanine vs untreated, human beta globin polyA sequence): didn't induce luciferase activity

B3: U1_Gua_2: U1 site linked with xpt-guanine aptamer, 110 nt upstream of SV40 early poly(A) in pFLuc (nucleic acid)
DNA: TCATAAAGGCCAAGAAGGGCGGAAAGATCGCCGTGTAAGCCATACCACATTTGTAGAGGTTTTACTTGCTTTAAAAAACCTCCCACACCTAAGGTAATGTATAATCGCGTGGATATGGCACGCAAGTTTCTACCGGGCACCGTAAATGTCCGACTACATTACCCCCCTGAACCTGAAACATAAAATGAATGCAATTGTTGTTGTTAACTTGTTTATTGCAGCTTATAATGGTTACAAATAAAGCAATAGCATCACAAATTTCACAAATAAAGCATTTTTTTCACTGCATTCTAGTTGTGGTTTGTCCAAACTCATCAATGTATCTTAA
modifications: in pFLuc; U1_Gua_2 wt in pFLuc
notes: U1 site linked with xpt-guanine aptamer, 110 nt upstream of SV40 early poly(A) in pFLuc
fold increase of luciferase activity upon guanine treatment ([1]; SV40 early poly(A) signal): 2.0 fold

B4: U1_Gua_1: DHFR exon 2 5′ splice site U1 site linked with xpt-guanine aptamer, 149 nt upstream of SV40 early poly(A) in pFLuc (nucleic acid)
DNA: TCATAAAGGCCAAGAAGGGCGGAAAGATCGCCGTGTAAGCCATACCACATTAAGGTAATGTATAATCGCGTGGATATGGCACGCAAGTTTCTACCGGGCACCGTAAATGTCCGACTACATTACTGTAGAGGTTTTACTTGCTTTAAAAAACCTCCCACACCTCCCCCTGAACCTGAAACATAAAATGAATGCAATTGTTGTTGTTAACTTGTTTATTGCAGCTTATAATGGTTACAAATAAAGCAATAGCATCACAAATTTCACAAATAAAGCATTTTTTTCACTGCATTCTAGTTGTGGTTTGTCCAAACTCATCAATGTATCTTAA
modifications: in pFLuc; U1_Gua_1 wt in pFLuc
notes: DHFR exon 2 5′ splice site U1 site linked with xpt-guanine aptamer, 149 nt upstream of SV40 early poly(A) in pFLuc
fold increase of luciferase activity upon guanine treatment ([1]; SV40 early poly(A) signal): 2.4 fold

B5: U1_theo_8_1: sequential stem mutation of U1_theo_8 in pRL-SV40 (nucleic acid)
DNA: TCAAATCGTTCGTTGAGCGAGTTCTCAAAAATGAACAATAATTCTAGAGCGGCCGCTTCGAGCAGACATGATAAGATACATTGATGAGTTTGGACAAACCAAACCCAGGTAAGTGATACCAGCCGAAAGGCCCTTGGCAGCACTTACCTGGACAACTAGAATGCAGTGAAAAAAATGCTTTATTTGTGAAATTTGTGATGCTATTGCTTTATTTGTAACCATTATAAGCTGCAATAAACAAGTTAACAACAAC
modifications: in pRL-SV40; U1_theo_8_1 in pRL-SV40
induction fold of luciferase activity (theophylline treated / untreated) ([2]; 3 mM theophylline, 20 to 24 hours): 1.8 fold

B6: 4 copies of U1-theo_8_1: 4 copies of the U1_theo_8_1 sequence in tandem in the 3′ UTR of pRL-SV40 (nucleic acid)
DNA: TCAAATCGTTCGTTGAGCGAGTTCTCAAAAATGAACAATAATTCTAGAGCGGCCGCTTCGAGCAGACATGATAAGATACATTGATGAGTTTGGACAAACCAAACCCAGGTAAGTGATACCAGCCGAAAGGCCCTTGGCAGCACTTACCTGGACAACTAGAATGCAGTGAAAAAAGAGTTTGGACAAACCAAACCCAGGTAAGTGATACCAGCCGAAAGGCCCTTGGCAGCACTTACCTGGACAACTAGAATGCAGTGAAAAAAATGCGAGTTTGGACAAACCAAACCCAGGTAAGTGATACCAGCCGAAAGGCCCTTGGCAGCACTTACCTGGACAACTAGAATGCAGTGAAAAAAATGCTTTATTTGTGAGAGTTTGGACAAACCAAACCCAGGTAAGTGATACCAGCCGAAAGGCCCTTGGCAGCACTTACCTGGACAACTAGAATGCAGTGAAAAAAATGCTTTATTTGTGAAATTTGTGATGCTATTGCTTTATTTGTAACCATTATAAGCTGCAATAAACAAGTTAACAACAAC
modifications: in pRL-SV40 3′ UTR; 4xU1_theo_8_1 in pRL-SV40
reduction of basal level expression compared to single copy of U1_theo_8_1 ([2]; no theophylline): 83% | change of luciferase activity after theophylline treatment (in words) ([2]; with vs without theophylline): increased the luciferase activity in a dose-dependent manner | maximal induction fold of luciferase activity ([3]; 6 mM theophylline): 4.3 fold | luciferase activity relative to 87-9 SL control vector ([3]; upon theophylline treatment, maximal at 6 mM): 40%

B7: U1_Gua_3: U1 site linked with xpt-guanine aptamer, 74 nt upstream of SV40 early poly(A) in pFLuc (nucleic acid)
DNA: TCATAAAGGCCAAGAAGGGCGGAAAGATCGCCGTGTAAGCCATACCACATTTGTAGAGGTTTTACTTGCTTTAAAAAACCTCCCACACCTCCCCCTGAACCTGAAACATAAAATGAATGCAATTGTAAGGTAATGTATAATCGCGTGGATATGGCACGCAAGTTTCTACCGGGCACCGTAAATGTCCGACTACATTACTGTTGTTAACTTGTTTATTGCAGCTTATAATGGTTACAAATAAAGCAATAGCATCACAAATTTCACAAATAAAGCATTTTTTTCACTGCATTCTAGTTGTGGTTTGTCCAAACTCATCAATGTATCTTAA
modifications: in pFLuc; U1_Gua_3 wt in pFLuc
notes: U1 site linked with xpt-guanine aptamer, 74 nt upstream of SV40 early poly(A) in pFLuc
fold increase of luciferase activity upon guanine treatment ([1]; SV40 early poly(A) signal): 1.7 fold
